Source: paper PMC4169324 (The FEBS journal, 2014)

B1: BcRsaM protein (product of bcam1869) from B. cenocepacia J2315, native (natural protein)
chain: SNAMTSPLLHPVPGPSPDGYVRLSEGALAALVLDHVASGLDPSLLAELRDNAIDARLAGYTEWHRTAGAGVAYVTVGWDWYLERATGTFVIAGGDVRSNVMAIDAKGADIGMLRTAAALAARLAALDWPAAVASALLGHNDAYHAGPTLQ
B2: SeMet-labeled BcRsaM protein from B. cenocepacia J2315 (natural protein)
chain: B1 chain
modifications: selenomethionine (SeMet-labeled; 70 mg/L SeMet in the culture for crystals X4)

Legend:
SEC = biological target: the molecule itself; assay: SEC
crystal structure = biological target: the molecule itself; assay: crystal structure

| Protein | stoichiometry N (SEC) | binding result (crystal structure) |
| --- | --- | --- |
| B1 | 2 |  |
| B2 |  | binds |
